The numbers were not newly measured in article PMC9585055, which cites them from elsewhere.

By Kd is commonly meant the free concentration of one partner at which half of the binding sites on the other are occupied at equilibrium, for simple one-to-one binding.

This data set deals with cellular prion protein PrPC (Homo sapiens) (UniProt P04156).

“tissue-type plasminogen activator (from UniProt P00750)”: the Kd was 2.5 nM.
